Data taken from patent US20030059769A1.

Molecular target: LS-Rg, chimeric protein of the extracellular domain of human L-selectin joined to the Fc domain of a human G2 immunoglobulin (human) (UniProt P14151)
Assay: competition of unlabeled antibody against radiolabeled 2'-F RNA ligand LF1807 on purified LS-Rg

Chain of LS-Rg, chimeric protein of the extracellular domain of human L-selectin joined to the Fc domain of a human G2 immunoglobulin (human) (P14151 39-332, stated change not applied): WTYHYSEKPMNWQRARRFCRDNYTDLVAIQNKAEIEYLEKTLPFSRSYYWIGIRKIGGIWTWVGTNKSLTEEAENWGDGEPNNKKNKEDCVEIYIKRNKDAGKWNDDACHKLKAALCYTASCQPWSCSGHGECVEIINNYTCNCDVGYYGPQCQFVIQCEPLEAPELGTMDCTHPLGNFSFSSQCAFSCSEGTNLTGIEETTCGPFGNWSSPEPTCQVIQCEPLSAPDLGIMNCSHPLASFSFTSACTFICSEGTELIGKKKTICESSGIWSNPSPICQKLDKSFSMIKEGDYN

Substance: DREG-56, L-selectin specific blocking monoclonal antibody
- concentration for complete inhibition: 300 nM
